Results reported in US20210207126A1.

What was measured:
[1] = target: CD137 antigen used to stain yeast (human) (UniProt Q07011); assay: flow cytometry of yeast displaying the scFv, CD137 binding against scFv display; file 01-display-C2.fcs; antigen concentration not given
[2] = target: CD137 antigen used to stain yeast (human) (UniProt Q07011); assay: flow cytometry of yeast displaying the scFv, quadrant plot; the other quadrants read 0.39% (upper left), 34.3% (lower left), 3.83% (lower right)
[3] = target: CD137 antigen used to stain yeast (human) (UniProt Q07011); assay: flow cytometry of yeast displaying the scFv, CD137 binding against scFv display; file 01-5112.2-B5.fcs; kind of statistic and antigen concentration not given; the boxed gate is set on scFv display
[4] = target: CD137 antigen used to stain yeast (human) (UniProt Q07011); assay: flow cytometry of yeast displaying the scFv clone after TEV protease treatment, CD137 binding against scFv display; file 01-2317-B8.fcs; antigen concentration not given
[5] = target: CD137 antigen used to stain yeast (human) (UniProt Q07011); assay: flow cytometry of yeast displaying the clone after TEV protease treatment, CD137 binding against the axis printed as scFv display; file 01-2328-B11.fcs; antigen concentration not given

Chain of CD137 antigen used to stain yeast (human) (Q07011 24-186 limits assumed): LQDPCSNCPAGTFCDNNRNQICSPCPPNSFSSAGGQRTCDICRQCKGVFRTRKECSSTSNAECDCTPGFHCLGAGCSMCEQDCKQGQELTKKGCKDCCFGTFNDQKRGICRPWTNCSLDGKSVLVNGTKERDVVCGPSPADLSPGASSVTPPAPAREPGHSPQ

B1: scFv of TY21242 displayed on yeast (scFv, part only; not given: scFv linker, Aga2, tag, V domains shown, not shown: another chain or arm of the molecule; large carriers; small tags and cut ends)
VL: DIQLTQSPSSLSASVGDRVTITCRASQSIGSYLAWYQQKPGKAPKLLIYDASNLETGVPSRFSGSGSGTDFTLTISSLQPEDFATYYCQQGYYLWTFGQGTKVEIK
VH: EVQLVESGGGLVQPGGSLRLSCAASGFSLSTGGVGVGWIRQAPGKGLEWLALIDWADDKYYSPSLKSRLTISRDNSKNTLYLQLNSLRAEDTAVYYCARGGSDTVIGDWFAYWGQGTLVTVSS
Y (signal on the CD137 binding axis, FL2-A :: PE-A) [1]: 27800 | percent of cells in the upper right quadrant (scFv display positive and CD137 binding positive) [2]: 61.4% | Y (signal on the CD137 binding axis, FL2-A :: PE-A) [3]: 19200

B2: CD137 activatable antibody clone B13428 (scFv on yeast, masking peptide cleaved by TEV protease) (scFv, part only; not given: cleavage stub, scFv linker, Aga2, V domains shown, not shown: another chain or arm of the molecule; large carriers; small tags and cut ends)
VL: B1 VL
VH: B1 VH
Y (signal on the CD137 binding axis, FL2-A :: PE-A) [4]: 10100

B3: CD137 activatable antibody clone B13439 (scFv on yeast, masking peptide cleaved by TEV protease) (scFv, part only; not given: cleavage stub, scFv linker, Aga2, tag, V domains shown, not shown: another chain or arm of the molecule; large carriers; small tags and cut ends)
VL: B1 VL
VH: B1 VH
Y (signal on the CD137 binding axis, FL2-A :: PE-A) [5]: 7270
